From paper PMC4066673

Substrate: CCCCCCCCCCCCCC(=O)SCCNC(=O)CCNC(=O)[C@H](O)C(C)(C)COP(=O)(O)OP(=O)(O)OC[C@H]1O[C@@H](n2cnc3c(N)ncnc32)[C@H](O)[C@@H]1OP(=O)(O)O
Assay: purified protein
Conditions: pH 7.5; 25.0 °C

B1: hTHEM4 (Homo sapiens) (protein)
chain: SSEEVILKDCSVPNPSWNKDLRLLFDQFMKKCEDGSWKRLPSYKRTPTEWIQDFKTHFLDPKLMKEEQMSQAQLFTRSFDDGLGFEYVMFYNDIEKRMVCLFQGGPYLEGPPGFIHGGAIATMIDATVGMCAMMAGGIVMTANLNINYKRPIPLCSVVMINSQLDKVEGRKFFVSCNVQSVDEKTLYSEATSLFIKLNPAKSLT
  kcat/Km: 1.7e+06 M⁻¹ s⁻¹
